Results published in IntAct's records for PubMed 25910212.

B1: Cyclin-dependent kinase 4 (Homo sapiens), P11802 (parent)
chain: MATSRYEPVAEIGVGAYGTVYKARDPHSGHFVALKSVRVPNGGGGGGGLPISTVREVALLRRLEAFEHPNVVRLMDVCATSRTDREIKVTLVFEHVDQDLRTYLDKAPPPGLPAETIKDLMRQFLRGLDFLHANCIVHRDLKPENILVTSGGTVKLADFGLARIYSYQMALTPVVVTLWYRAPEVLLQSTYATPVDMWSVGCIFAEMFRRKPLFCGNSEADQLGKIFDLIGLPPEDDWPRDVSLPRGAFPPRGPRPVQSVVPEMEESGAQLLLEMLTFNPHKRISAFRALQHSYLHKDEGNPE
partner: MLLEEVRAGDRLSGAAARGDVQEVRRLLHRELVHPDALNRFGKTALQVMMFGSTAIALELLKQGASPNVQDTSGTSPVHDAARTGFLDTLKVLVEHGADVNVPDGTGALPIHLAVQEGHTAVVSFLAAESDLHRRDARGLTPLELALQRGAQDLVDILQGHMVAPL
B2: Interferon-inducible double-stranded RNA-dependent protein kinase activator A (Homo sapiens), O75569 (parent)
chain: MSQSRHRAEAPPLEREDSGTFSLGKMITAKPGKTPIQVLHEYGMKTKNIPVYECERSDVQIHVPTFTFRVTVGDITCTGEGTSKKLAKHRAAEAAINILKANASICFAVPDPLMPDPSKQPKNQLNPIGSLQELAIHHGWRLPEYTLSQEGGPAHKREYTTICRLESFMETGKGASKKQAKRNAAEKFLAKFSNISPENHISLTNVVGHSLGCTWHSLRNSPGEKINLLKRSLLSIPNTDYIQLLSEIAKEQGFNITYLDIDELSANGQYQCLAELSTSPITVCHGSGISCGNAQSDAAHNALQYLKIIAERK
partner: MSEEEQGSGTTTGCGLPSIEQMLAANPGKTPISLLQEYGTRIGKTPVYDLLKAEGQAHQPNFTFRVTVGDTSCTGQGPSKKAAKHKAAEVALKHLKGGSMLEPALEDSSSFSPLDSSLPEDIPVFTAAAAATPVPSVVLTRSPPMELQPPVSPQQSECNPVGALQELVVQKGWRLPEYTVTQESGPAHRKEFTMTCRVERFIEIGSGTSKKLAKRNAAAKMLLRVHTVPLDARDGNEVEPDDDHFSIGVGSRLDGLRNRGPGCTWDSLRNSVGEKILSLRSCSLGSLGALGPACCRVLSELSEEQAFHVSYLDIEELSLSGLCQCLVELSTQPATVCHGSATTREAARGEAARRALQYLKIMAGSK
B3: Probetacellulin (Homo sapiens), P35070 (parent)
chain: MDRAARCSGASSLPLLLALALGLVILHCVVADGNSTRSPETNGLLCGDPEENCAATTTQSKRKGHFSRCPKQYKHYCIKGRCRFVVAEQTPSCVCDEGYIGARCERVDLFYLRGDRGQILVICLIAVMVVFIILVIGVCTCCHPLRKRRKRKKKEEEMETLGKDITPINEDIEETNIA
B4: 60 kDa heat shock protein, mitochondrial (Homo sapiens), P10809 (parent)
chain: MLRLPTVFRQMRPVSRVLAPHLTRAYAKDVKFGADARALMLQGVDLLADAVAVTMGPKGRTVIIEQSWGSPKVTKDGVTVAKSIDLKDKYKNIGAKLVQDVANNTNEEAGDGTTTATVLARSIAKEGFEKISKGANPVEIRRGVMLAVDAVIAELKKQSKPVTTPEEIAQVATISANGDKEIGNIISDAMKKVGRKGVITVKDGKTLNDELEIIEGMKFDRGYISPYFINTSKGQKCEFQDAYVLLSEKKISSIQSIVPALEIANAHRKPLVIIAEDVDGEALSTLVLNRLKVGLQVVAVKAPGFGDNRKNQLKDMAIATGGAVFGEEGLTLNLEDVQPHDLGKVGEVIVTKDDAMLLKGKGDKAQIEKRIQEIIEQLDVTTSEYEKEKLNERLAKLSDGVAVLKVGGTSDVEVNEKKDRVTDALNATRAAVEEGIVLGGGCALLRCIPALDSLTPANEDQKIGIEIIKRTLKIPAMTIAKNAGVEGSLIVEKIMQSSSEVGYDAMAGDFVNMVEKGIIDPTKVVRTALLDAAGVASLLTTAEVVVTEIPKEEKDPGMGAMGGMGGGMGGGMF
B5: Alpha-sarcoglycan (Homo sapiens), Q16586 (parent)
chain: MAETLFWTPLLVVLLAGLGDTEAQQTTLHPLVGRVFVHTLDHETFLSLPEHVAVPPAVHITYHAHLQGHPDLPRWLRYTQRSPHHPGFLYGSATPEDRGLQVIEVTAYNRDSFDTTRQRLVLEIGDPEGPLLPYQAEFLVRSHDAEEVLPSTPASRFLSALGGLWEPGELQLLNVTSALDRGGRVPLPIEGRKEGVYIKVGSASPFSTCLKMVASPDSHARCAQGQPPLLSCYDTLAPHFRVDWCNVTLVDKSVPEPADEVPTPGDGILEHDPFFCPPTEAPDRDFLVDALVTLLVPLLVALLLTLLLAYVMCCRREGRLKRDLATSDIQMVHHCTIHGNTEELRQMAASREVPRPLSTLPMFNVHTGERLPPRVDSAQVPLILDQH
B6: Multifunctional procollagen lysine hydroxylase and glycosyltransferase LH3 (Homo sapiens), O60568 (parent)
chain: MTSSGPGPRFLLLLPLLLPPAASASDRPRGRDPVNPEKLLVITVATAETEGYLRFLRSAEFFNYTVRTLGLGEEWRGGDVARTVGGGQKVRWLKKEMEKYADREDMIIMFVDSYDVILAGSPTELLKKFVQSGSRLLFSAESFCWPEWGLAEQYPEVGTGKRFLNSGGFIGFATTIHQIVRQWKYKDDDDDQLFYTRLYLDPGLREKLSLNLDHKSRIFQNLNGALDEVVLKFDRNRVRIRNVAYDTLPIVVHGNGPTKLQLNYLGNYVPNGWTPEGGCGFCNQDRRTLPGGQPPPRVFLAVFVEQPTPFLPRFLQRLLLLDYPPDRVTLFLHNNEVFHEPHIADSWPQLQDHFSAVKLVGPEEALSPGEARDMAMDLCRQDPECEFYFSLDADAVLTNLQTLRILIEENRKVIAPMLSRHGKLWSNFWGALSPDEYYARSEDYVELVQRKRVGVWNVPYISQAYVIRGDTLRMELPQRDVFSGSDTDPDMAFCKSFRDKGIFLHLSNQHEFGRLLATSRYDTEHLHPDLWQIFDNPVDWKEQYIHENYSRALEGEGIVEQPCPDVYWFPLLSEQMCDELVAEMEHYGQWSGGRHEDSRLAGGYENVPTVDIHMKQVGYEDQWLQLLRTYVGPMTESLFPGYHTKARAVMNFVVRYRPDEQPSLRPHHDSSTFTLNVALNHKGLDYEGGGCRFLRYDCVISSPRKGWALLHPGRLTHYHEGLPTTWGTRYIMVSFVDP
partner: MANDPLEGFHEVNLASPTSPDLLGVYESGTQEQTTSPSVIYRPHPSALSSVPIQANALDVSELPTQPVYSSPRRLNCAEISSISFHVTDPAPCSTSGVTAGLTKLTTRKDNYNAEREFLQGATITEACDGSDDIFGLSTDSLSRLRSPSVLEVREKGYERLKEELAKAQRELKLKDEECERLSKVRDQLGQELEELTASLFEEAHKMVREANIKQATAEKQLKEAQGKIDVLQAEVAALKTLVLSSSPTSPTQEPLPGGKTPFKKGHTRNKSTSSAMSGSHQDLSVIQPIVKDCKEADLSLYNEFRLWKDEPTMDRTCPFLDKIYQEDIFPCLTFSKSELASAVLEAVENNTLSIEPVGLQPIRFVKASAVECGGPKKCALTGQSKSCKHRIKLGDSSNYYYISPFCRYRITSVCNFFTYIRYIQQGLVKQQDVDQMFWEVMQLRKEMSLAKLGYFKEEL
B7: Inactive peptidyl-prolyl cis-trans isomerase FKBP6 (Homo sapiens), O75344 (parent)
chain: MGGSALNQGVLEGDDAPGQSLYERLSQRMLDISGDRGVLKDVIREGAGDLVAPDASVLVKYSGYLEHMDRPFDSNYFRKTPRLMKLGEDITLWGMELGLLSMRRGELARFLFKPNYAYGTLGCPPLIPPNTTVLFEIELLDFLDCAESDKFCALSAEQQDQFPLQKVLKVAATEREFGNYLFRQNRFYDAKVRYKRALLLLRRRSAPPEEQHLVEAAKLPVLLNLSFTYLKLDRPTIALCYGEQALIIDQKNAKALFRCGQACLLLTEYQKARDFLVRAQKEQPFNHDINNELKKLASCYRDYVDKEKEMWHRMFAPCGDGSTAGES
B8: Vitamin D3 receptor (Homo sapiens), P11473 (parent)
chain: MEAMAASTSLPDPGDFDRNVPRICGVCGDRATGFHFNAMTCEGCKGFFRRSMKRKALFTCPFNGDCRITKDNRRHCQACRLKRCVDIGMMKEFILTDEEVQRKREMILKRKEEEALKDSLRPKLSEEQQRIIAILLDAHHKTYDPTYSDFCQFRPPVRVNDGGGSHPSRPNSRHTPSFSGDSSSSCSDHCITSSDMMDSSSFSNLDLSEEDSDDPSVTLELSQLSMLPHLADLVSYSIQKVIGFAKMIPGFRDLTSEDQIVLLKSSAIEVIMLRSNESFTMDDMSWTCGNQDYKYRVSDVTKAGHSLELIEPLIKFQVGLKKLNLHEEEHVLLMAICIVSPDRPGVQDAALIEAIQDRLSNTLQTYIRCRHPPPGSHLLYAKMIQKLADLRSLNEEHSKQYRCLSFQPECSMKLTPLVLEVFGNEIS
partner: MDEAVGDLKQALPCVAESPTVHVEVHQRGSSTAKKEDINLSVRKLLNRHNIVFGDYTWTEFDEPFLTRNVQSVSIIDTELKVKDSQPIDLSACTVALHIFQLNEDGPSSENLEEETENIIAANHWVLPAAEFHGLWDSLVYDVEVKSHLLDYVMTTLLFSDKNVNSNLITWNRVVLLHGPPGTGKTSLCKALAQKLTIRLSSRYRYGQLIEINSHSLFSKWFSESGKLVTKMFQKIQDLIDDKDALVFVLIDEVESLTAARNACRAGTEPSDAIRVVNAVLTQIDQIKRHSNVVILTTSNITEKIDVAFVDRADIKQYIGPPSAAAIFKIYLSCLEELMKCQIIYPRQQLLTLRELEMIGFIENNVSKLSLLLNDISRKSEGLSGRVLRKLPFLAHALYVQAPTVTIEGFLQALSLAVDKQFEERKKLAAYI
B9: Tumor necrosis factor receptor superfamily member 13B (Homo sapiens), O14836-2 (parent)
chain: MSGLGRSRRGGRSRVDQEERWSLSCRKEQGKFYDHLLRDCISCASICGQHPKQCAYFCENKLRSPVNLPPELRRQRSGEVENNSDNSGRYQGLEHRGSEASPALPGLKLSADQVALVYSTLGLCLCAVLCCFLVAVACFLKKRGDPCSCQPRSRPRQSPAKSSQDHAMEAGSPVSTSPEPVETCSFCFPECRAPTQESAVTPGTPDPTCAGRWGCHTRTTVLQPCPHIPDSGLGIVCVPAQEGGPGA

Variants of: B1
Conditions: with cdn2d_human CDKN2D

Variant | effect of a mutation on the interaction
S52N | with no effect
N41S | with no effect
R24H | with no effect
R24C | with no effect

Variants of: B2
Conditions: with trbp2_human TARBP2, Q15633

Variant | effect of a mutation on the interaction
P222L | with no effect

Variants of: B3
Conditions: with sgta_human SGTA
Target sequence in this assay (O43765 whole entry): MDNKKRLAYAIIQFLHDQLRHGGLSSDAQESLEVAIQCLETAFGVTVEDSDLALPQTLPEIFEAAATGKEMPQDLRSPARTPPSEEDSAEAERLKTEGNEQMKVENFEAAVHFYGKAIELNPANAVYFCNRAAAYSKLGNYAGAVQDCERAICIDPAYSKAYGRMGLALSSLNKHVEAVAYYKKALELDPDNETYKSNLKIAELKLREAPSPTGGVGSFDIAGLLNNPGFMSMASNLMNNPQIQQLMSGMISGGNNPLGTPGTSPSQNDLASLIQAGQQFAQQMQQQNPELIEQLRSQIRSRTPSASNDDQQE

Variant | effect of a mutation on the interaction
C7G | with no effect

Variants of: B4
Conditions: with lzts2_human LZTS2, Q9BRK4
Target sequence in this assay (Q9BRK4 whole entry): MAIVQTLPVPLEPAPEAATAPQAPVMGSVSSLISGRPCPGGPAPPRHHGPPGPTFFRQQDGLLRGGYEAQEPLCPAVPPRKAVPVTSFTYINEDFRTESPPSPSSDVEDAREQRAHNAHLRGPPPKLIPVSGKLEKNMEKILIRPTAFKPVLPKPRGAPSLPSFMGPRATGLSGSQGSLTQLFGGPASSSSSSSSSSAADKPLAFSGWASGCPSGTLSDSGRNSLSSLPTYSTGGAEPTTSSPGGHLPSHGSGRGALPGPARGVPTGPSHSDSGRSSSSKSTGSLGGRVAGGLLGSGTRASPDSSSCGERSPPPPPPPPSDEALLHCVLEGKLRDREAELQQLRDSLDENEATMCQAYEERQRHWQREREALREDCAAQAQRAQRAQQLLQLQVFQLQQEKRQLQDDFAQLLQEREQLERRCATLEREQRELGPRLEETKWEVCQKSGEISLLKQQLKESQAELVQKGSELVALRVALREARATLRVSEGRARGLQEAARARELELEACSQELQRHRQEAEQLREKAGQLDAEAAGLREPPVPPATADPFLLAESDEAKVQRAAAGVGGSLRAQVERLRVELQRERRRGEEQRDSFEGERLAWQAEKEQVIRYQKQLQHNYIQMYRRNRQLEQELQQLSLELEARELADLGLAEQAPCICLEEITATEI

Variant | effect of a mutation on the interaction
D29G | disrupting interaction strength
V98I | with no effect
Q461E | with no effect

Variants of: B5
Conditions: with sgta_human SGTA
Target sequence in this assay (O43765 whole entry): as the sequence (O43765 whole entry) above

Variant | effect of a mutation on the interaction
T208I | with no effect
M312R | with no effect
R98H | with no effect

Variants of: B6
Conditions: with RAB3IP

Variant | effect of a mutation on the interaction
N223S | with no effect

Variants of: B7
Conditions: with lzts2_human LZTS2, Q9BRK4
Target sequence in this assay (Q9BRK4 whole entry): as the sequence (Q9BRK4 whole entry) above

Variant | effect of a mutation on the interaction
F72L | disrupting interaction strength
R202H | with no effect

Variants of: B7
Conditions: with meox2_human MEOX2, P50222
meox2_human MEOX2, P50222, sequence (P50222 whole entry): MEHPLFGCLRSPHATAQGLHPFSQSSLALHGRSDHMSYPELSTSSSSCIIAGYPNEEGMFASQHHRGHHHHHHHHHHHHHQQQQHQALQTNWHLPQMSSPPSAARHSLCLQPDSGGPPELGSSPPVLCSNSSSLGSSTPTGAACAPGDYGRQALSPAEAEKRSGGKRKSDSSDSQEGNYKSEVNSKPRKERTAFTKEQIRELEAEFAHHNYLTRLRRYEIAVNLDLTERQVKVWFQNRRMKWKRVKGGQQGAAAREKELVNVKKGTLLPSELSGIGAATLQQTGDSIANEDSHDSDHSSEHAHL

Variant | effect of a mutation on the interaction
F72L | disrupting interaction strength
R202H | with no effect

Variants of: B8
Conditions: with pch2_human TRIP13, Q15645

Variant | effect of a mutation on the interaction
E329K | disrupting interaction strength
I268T | with no effect
G33D | with no effect
C190W | with no effect

Variants of: B9
Conditions: with sgta_human SGTA
Target sequence in this assay (O43765 whole entry): as the sequence (O43765 whole entry) above

Variant | effect of a mutation on the interaction
A103T | with no effect
